These results are taken from patent publication US20190002549A1 (I MAB BIOPHARMA, published 2019).

Test [1] has as its target T1, recombinant human GM-CSF protein (human, UniProt P04141 18-144). Description: cell-based or functional assay.
Test [2] has as its target T1, recombinant human GM-CSF protein. Description: SPR Biacore T200, antibody captured by anti-mouse Fc, GM-CSF as analyte, 25 C, 1:1 model. How it is done: FIG. 4 plots the binding kinetics of 23F4 and 50C5 with recombinant human GM-CSF. […] The binding kinetics assay of antibody to antigen was performed using Biacore T200 system through a mouse antibody capture approach. The anti-mouse Fc IgG were immobilized on CMS sensor chip according to the manufacturer's instruction. The test antibody was injected and captured by the immobilized anti-mouse Fc IgG. And then serial concentrations of the antigen were individually injected, and the binding profile was recorded for each concentration of antigen analyte, respectively. The assay system was regenerated by injection of 10 mM Glycine-HCL pH 1.5 for 30 seconds. The running buffer was HBS-EP+ (10 mM HEPES, pH 7.4, 150 mM NaCl, 3 mM EDTA and 0.05% P20). The assay temperature was 25° C., and the association and dissociation time were 180 and 600 seconds, respectively.

For test [3] the target is unchanged. Description: competition ELISA: antibody titrated with biotinylated human GM-CSF (0.05 ug/ml) on coated human GM-CSF receptor alpha (CD116); signal is GM-CSF bound to the receptor. As to the method:
After coating of antigen the wells were blocked with PBS/0.05% Tween (PBST) with 1% BSA for 1 h at RT. After washing of the wells with PBST, different concentrations of anti-GM-CSF antibodies were added to the well in the presence of biotinylated human GM-CSF protein (0.05 μg/ml) and incubated for 1 hr at RT.
For detection of the binding of biotinylated GM-CSF to the coated receptor, the HRP-conjugated Streptavidin was added, followed by the addition of fluorogenic substrates (Roche). Between all incubation steps, the wells of the plate were washed with PBST three times. Fluorescence was measured in a TECAN Spectrafluor plate reader.
On the technique in general: An ELISA detects its analyte on a solid surface through an enzyme-linked reagent.

Test [4] shares this target. Description: ELISA, human GM-CSF coated at 1 µg/ml. How it is done: (§1) Recombinant human or rhesus GM-CSF protein (Genscript) was coated at 1 μg/ml in PBS onto microtiter plates for 2 h at room temperature (RT). After coating of antigen the wells were blocked with PBS/0.05% Tween (PBST) with 1% BSA for 1 h at RT. After washing of the wells with PBST, different concentrations of anti-GM-CSF antibodies were added to the well and incubated for 1 at RT. For detection of the binding antibodies, the HRP-conjugated secondary antibodies against mouse Fc (Jackson Immuno Research) were added, followed by the addition of fluorogenic substrates (Roche). Between all incubation steps, the wells of the plate were washed with PBST three times. Fluorescence was measured in a TECAN Spectrafluor plate reader.

Test [5] has as its target T2, recombinant rhesus GM-CSF protein (rhesus, UniProt Q9GL44 18-144).
T2 construct: Bought recombinant protein (Genscript)
Description: ELISA, rhesus GM-CSF coated at 1 µg/ml. How it is done: as §1

In test [6] the target is T2, recombinant rhesus GM-CSF protein. Description: ELISA, rhesus GM-CSF coated at 1 ug/ml. As to the method: as §1, with “Recombinant rhesus GM-CSF” for “Recombinant human or rhesus GM-CSF”, “at 1 ug/ml in PBS” for “at 1 μg/ml in PBS”, “coating of antigen, the wells” for “coating of antigen the wells”, “concentrations of humanized anti-GM-CSF antibodies” for “concentrations of anti-GM-CSF antibodies”

The target of test [7] is T1, recombinant human GM-CSF protein. Description: cell-based or functional assay. The source holds these as a separate data set.
Test [8] shares this target. Description: SPR Biacore T200, antibody captured by anti-human Fc, GM-CSF as analyte, 25 C, 1:1 model. As to the method:
The binding kinetics of humanized antibodies were measured by Biacore as previously described. […] The binding kinetics assay of antibody to antigen was performed using Biacore T200 system through a human antibody capture approach. The anti-human Fc IgG were immobilized on CMS sensor chip according to the manufacturer's instruction. The test antibody was injected and captured by the immobilized anti-human Fc IgG. And then serial concentrations of the antigen were individually injected, and the binding profile was recorded for each concentration of antigen analyte, respectively.
The assay system was regenerated by injection of 10 mM Glycine-HCL pH 1.5 for 30 seconds. The running buffer was HBS-EP+ (10 mM HEPES, pH 7.4, 150 mM NaCl, 3 mM EDTA and 0.05% P20). The assay temperature was 25° C., and the association and dissociation time were 180 and 600 seconds, respectively.
On the technique in general: Surface plasmon resonance follows binding to a sensor surface in real time, without labels.

T2 sequence (Q9GL44 entry or part of it limits assumed): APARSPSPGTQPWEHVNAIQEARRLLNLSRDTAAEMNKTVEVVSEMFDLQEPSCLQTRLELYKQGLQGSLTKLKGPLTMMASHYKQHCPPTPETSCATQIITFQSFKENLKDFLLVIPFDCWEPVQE
T1 sequence (P04141 18-144 limits assumed): as the sequence (Q9GL44 entry or part of it limits assumed) above, with G9S, K38E, V43I, S53T, Q67R, Q104E counted along it

B1: 23F4 (antibody, V domains shown)
VH: QVQLQQSGPELVKPGTSMKISCKTSDYTLTSHYLHWVKQRPGQGLEWIGWIFPGDDKTKYNEKFKGKATLTSDKTSNTAYMQLSSLTSEESAVYFCARGTKYLNWNFDVWGTGTTVTVSS
VL: DIVLTQPQKFLSTSVGDRVSVTCKANQNVGTTLAWYQQKPGQSPKALIYSASYRYSGVPDRFTGSGSGTDFTLTISNVQSEDLAEYFCHQYTTYPLTFGGGTKLEIK
notes: Mouse monoclonal antibody from a hybridoma; also called 23F4 antibody; murine antibody 23F4
B1: the “IC50 in the inhibition of TF-1 proliferation” value in test [1] is approximately 0.0109 µg/mL. Further, in test [2], the dissociation constant Kd was determined as 0.0417 nM, the koff was found to be 3.64e-05 s⁻¹ and the kon stood at 872000 M⁻¹ s⁻¹. For the same molecule, the “IC50 (read off the curve)” value in test [3] was approximately 1 µg/mL. Moreover, in test [4], the half-maximal effective concentration (EC50) is 0.0118 µg/mL. Further, the concentration for a half-maximal effect (EC50) in test [5] stood at 0.0102 µg/mL.

B2: Hu23F4-27 (antibody, V domains shown)
VH: EVQLVQSGAEVKKPGASVKVSCKASGYTFTSHYLHWVRQAPGQGLEWMGWIFPGDDKTKYNEKFKGRVTMTSDTSISTAYMELSRLRSDDTAVYYCARGTKYLNWNFDVWGQGTTVTVSS
VL: DIQLTQSPSFLSASVGDRVTITCKANQNVGTTLAWYQQKPGKSPKALIYSASYRYSGVPDRFSGSGSGTDFTLTISSLQPEDFATYFCHQYTTYPLTFGGGTKVEIK
notes: Humanized
For B2, the concentration for a half-maximal effect (EC50) in test [6] is 0.00625 µg/mL. In test [7], the “IC50 for TF-1 proliferation” value came out at 0.00395 µg/mL. In addition, in test [8], the equilibrium dissociation constant (Kd) is 0.102 nM, the off-rate constant (koff) turned out to be 9.46e-05 s⁻¹ and the on-rate constant (kon) came out at 923000 M⁻¹ s⁻¹.

B3: Hu23F4-36 (antibody, V domains shown)
VH: EVQLVQSGAEVKKPGASVKVSCKASDYTLTSHYLHWVRQAPGQGLEWIGWIFPGDDKTKYNEKFKGRATLTSDTSISTAYMELSRLRSDDTAVYYCARGTKYLNWNFDVWGQGTTVTVSS
VL: DIQLTQSPSFLSASVGDRVTITCKANQNVGTTLAWYQQKPGKAPKLLIYSASYRYSGVPSRFSGSGSGTEFTLTISSLQPEDFATYYCHQYTTYPLTFGGGTKVEIK
notes: Humanized
As for B3, the EC50 in test [6] was found to be 0.00775 µg/mL. Further, the “IC50 for TF-1 proliferation” value in test [7] came to 0.0033 µg/mL. Besides, in test [8], the dissociation constant Kd is 0.0807 nM, the koff turned out to be 0.000103 s⁻¹ and the kon was found to be 1.27e+06 M⁻¹ s⁻¹.

B4: 50C5 (antibody, V domains shown)
VH: QVQLQQSAAELVRPGASVKMSCKASGYIFTPYSIHWIKQRPGQGLEWIGYINPSTGYIEYNQHFKDRTTLTADKSSSTAYMQLRSLTSEDSAVYYCARGGDYEGYFDYWGQGTTLTVSS
VL: DIQMTQSPDSLSASVGETVTITCRLNENIYSFLAWYQQRQGKSPQLLVYNAETLAEDVPSRFSGSGSGTQFSLKISSLQTDDFGTYYCQQHYGTPYTFGGGTNLEIE
notes: Mouse monoclonal antibody from a hybridoma; also called 5005 (misprint of 50C5); murine antibody 50C5
As for B4, in test [1], the “IC50 in the inhibition of TF-1 proliferation” value was approximately 0.0109 µg/mL. In test [2], the equilibrium dissociation constant (Kd) amounted to 0.0443 nM, the koff is 0.00012 s⁻¹ and the association rate constant (kon) turned out to be 2.72e+06 M⁻¹ s⁻¹. For the same molecule, the half-maximal effective concentration (EC50) in test [4] turned out to be 0.0146 µg/mL. Moreover, in test [5], the EC50 is 0.0217 µg/mL.

B5: Hu50C5-17 (antibody, V domains shown)
VH: EVQLVQSGAEVKKPGSSVKVSCKASGYIFSPYSIHWVRQAPGQGLEWIGYINPSTGYIEYNQHFKDRTTLTADKSTSTAYMELRSLRSEDTAVYYCARGGDYEGYFDYWGQGTTVTVSS
VL: DIQMTQSPSSLSASVGDRVTITCRLNENIYSFLAWYQQKPGKAPKLLVYNAETLAEGVPSRFSGSGSGTDFTLTISSLQPEDFATYYCQQHYGTPYTFGGGTKVEIK
notes: Humanized; also called 35230Hu50C5-17
Regarding B5, in test [6], the EC50 came out at 0.0189 µg/mL. Moreover, in test [7], the “IC50 for TF-1 proliferation” value amounted to 0.0221 µg/mL. For the same molecule, in test [8], the equilibrium dissociation constant (Kd) is 0.0249 nM, the dissociation rate constant (koff) is 0.000111 s⁻¹ and the on-rate (kon) was found to be 4.47e+06 M⁻¹ s⁻¹.

B6: Hu50C5-23 (antibody, V domains shown)
VH: EVQLVQSGAEVKKPGSSVKVSCKASGYIFTPYSIHWVRQAPGQGLEWIGYINPSTGYIEYNQHFKDRTTLTADKSTSTAYMELRSLRSEDTAVYYCARGGDYEGYFDYWGQGTTVTVSS
VL: DIQMTQSPSSLSASVGDRVTITCRLNENIYSFLAWYQQKPGKAPKLLVYNAETLAEDVPSRFSGSGSGTDFTLTISSLQPEDFATYYCQQHYGTPYTFGGGTKVEIK
notes: Humanized; also called 35230Hu50C5-23
Consider B6, for which the concentration giving a half-maximal response (EC50) in test [6] is 0.0216 µg/mL. In addition, the “IC50 for TF-1 proliferation” value in test [7] stood at 0.0143 µg/mL. Further, in test [8], the dissociation constant Kd came to 0.0276 nM, the dissociation rate constant (koff) came out at 0.000125 s⁻¹ and the kon was determined as 4.54e+06 M⁻¹ s⁻¹.

A word on the Kd: it is the free concentration of one partner at which half of the binding sites on the other are occupied at equilibrium, for simple one-to-one binding. The koff is the first-order rate constant of dissociation. What is called kon is a measure of how fast the partners come together. What is called EC50 is the midpoint of the concentration-response curve.
